We go through four molecules from patent US11141462B2, “Method for the treatment or prevention of osteoarthritis” (Chondropeptix B.V., priority 2016, dated 2021).

Data set [1] relates to cartilage explants from OA patient's knee articular cartilage. Kind of data set: Treatment of cartilage explants, hypertrophic gene expression by qRT-PCR. The following applies: 24 h. Format: cell-based, human. The procedure: 4 mm 2 cartilage explants were taken from non-lesion areas of OA patient's knee articular cartilage (n=5) and randomly assigned to different experimental treatment conditions (4 explants per treatment group). After a 24 h equilibration period the explants were treated with BMP-7 (1 nM) or the 12-mer peptide according to SEQ ID NO: 43 (10 nM) for 24 h. Hypertrophic gene expression was determined via qRT-PCR and normalized for 28S rRNA levels. After treatment with BMP-7 or the 12 mer we observed a downregulation of pro-hypertrophic genes, such as Col10a1 (FIG. 9A) and MMP13 (FIG. 9B).

The subject of data set [2] is Isolated chondrocytes from OA patients. Kind of data set: Treatment of isolated chondrocytes from OA patients, gene expression by qRT-PCR. Format: cell-based, human. The following applies: 1 nM, 24 h; qRT-PCR normalized for 28S rRNA; n=6. As to the method:
Isolated chondrocytes from OA patients (n=6) were treated with BMP-7 (1 nM) or the 12-mer peptide according to SEQ ID NO: 43 (1 nM) for 24 h. Pro-chondrogenic (FIG. 8A) and hypertrophic (FIGS. 8B, 8C and 8D) gene expression was determined via qRT-PCR and normalized for 28S rRNA levels.
A general note: Quantitative PCR measures a nucleic acid by following its amplification.

In data set [3] the test system is Cartilage explants from OA patient's knee cartilage. Kind of data set: PGE2 ELISA, cartilage explants. Format: cell-based, human. The following applies: 14 days. As to the method:
Cartilage explants of 3 mm^2 were taken from OA patient's knee cartilage (n=6) and treated with BMP-7 (1 nM), with peptide […] (SEQ ID NO: 13) at 10 nM or a scrambled irrelevant control peptide (10 nM) for 14 days. Prostaglandin E2 (PGE2) levels, a pro-hypertrophic factor, were determined via an ELISA.
On the technique in general: In an ELISA, binding on a coated surface is turned into a signal by an enzyme label.

A further data set concerns Cartilage explants. Kind of data set: Safranin-O staining of glycosaminoglycans in cartilage explants. The following applies: 14 days, explants from 2 patients, compared to control. Format: cell-based, human. The procedure: Cartilage explants obtained from 2 patients were cultured for 14 days in the presence of BMP-7 (1 nM) or BMP-7 mimicking peptide […] (SEQ ID NO: 13) at 10 nM. Glycosaminoglycans (GAGs), an important component of the extracellular matrix (ECM), were stained with Safranin-O (in red) and other tissues are counterstained with Fast green (in green/blue).

Data set [4] deals with OA articular chondrocytes. Kind of data set: OA chondrocyte phenotype gene expression screening of BMP-7 peptides (RT-qPCR). It counts as cell-based, human. The following applies: independent of the tested concentration (1000, 100, 10 and 1 nM were tested). As to the method:
(§1) FIG. 2: The action of 20-mer peptides (10 nM) of SEQ ID NO: 2-17 (peptides with 1 or 2 amino acids intervals (18-19 amino acid overlap)) and a random peptide with a sequence according to SEQ ID NO: 49 on the expression of ADAMTS5 was determined on a validated pool of passage 2 OA human articular chondrocytes (n=18) and compared to full-length recombinant BMP-7 (1 nM). Samples were harvested after 24 hours and analyzed for indicated genes by RT-qPCR (normalized for 28S rRNA expression and relative to control conditions (no peptide exposure)). In the graphs, numbers on the x-axis represent individual peptides according to their SEQ ID NO's, error bars represent mean±SEM, statistical differences were calculated (one-way ANOVA with bonferroni correction) to control condition. *=p<0.05 lower than control condition for ADAMTS5. Random peptide is a peptide according to SEQ ID NO: 49.
as §1, with “3:” for “2:”, “ALP” for “ADAMTS5”, “ALP.” for “ADAMTS5.”
as §1, with “4:” for “2:”, “BAPX1/NKX3.2” for “ADAMTS5”, “BAPX1/NKX3.2.” for “ADAMTS5.”
as §1, with “5:” for “2:”, “COL10A1” for “ADAMTS5”, “COL10A1.” for “ADAMTS5.”
FIG. 6: The action of 20-mer peptides (10 nM) of SEQ ID NO: 2-17 (peptides with 1 or 2 amino acids intervals (18-19 amino acid overlap)) and a random peptide with a sequence according to SEQ ID NO: 49 on the expression of IL-6 was determined on a validated pool of passage 2 OA human articular chondrocytes (n=18) and compared to full-length recombinant BMP-7 (1 nM). […]

For data set [5], the system named is Synovial tissue samples from OA patients. Kind of data set: PGE2 ELISA, synovial tissue samples. It counts as cell-based, human. The following applies: 24 h. The procedure:
Synovial tissue samples from OA patients (n=6) were treated with BMP-7 (1 nM), with peptide […] (SEQ ID NO: 13) at 10 nM or a scrambled irrelevant control peptide (10 nM) for 24 h. PGE2 levels were determined via an ELISA.

Data set [6] concerns Meniscus tissue samples from OA patients. Kind of data set: PGE2 ELISA, meniscus tissue samples. Format: cell-based, human. The following applies: 24 h. As to the method:
Meniscus tissue samples from OA patients (n=6) were treated with BMP-7 (1 nM) with peptide peptide […] (SEQ ID NO: 13) at 10 nM or a scrambled irrelevant control peptide (10 nM) for 24 h. PGE2 levels were determined via an ELISA.

The subject of data set [7] is Hoffa's fat pad tissue samples from OA patients. Kind of data set: PGE2 ELISA, Hoffa's fat pad tissue samples. The following applies: 24 h. It counts as cell-based, human. As to the method: Hoffa's fat pad tissue samples from OA patients (n=6) were treated with BMP-7 (1 nM) with peptide […] (SEQ ID NO: 13) at 10 nM or a scrambled irrelevant control peptide (10 nM) for 24 h. PGE2 levels were determined via an ELISA.

For data set [8], the system named is IL-1β-exposed chondrocytes. The following applies: cited from earlier work.
The test system of the next data set is OA chondrocytes. The following applies: cited from earlier work.
A further data set concerns OA patients. The following applies: phase-1 clinical trial in OA patients; intra-articular injection; cited from earlier work.
In data set [9] the test system is Osteoarthritis chondrocytes. Kind of data set: BMP-7 rescue of OA-associated chondrocyte phenotype (FIG. 1). Format: cell-based. The procedure: FIG. 1: BMP-7 rescues OA-associated chondrocyte phenotype. Osteoarthritis chondrocytes display a typical phenotype that is characterized by decreased expression of SOX9, COL2A1 and BAPX1/NKX3.2 and an increased expression of COX-2 and IL-6 mRNAs (see left panel).
Functional ALP enzyme activity in cell lysates and PGE2 secretion in the culture medium was also normalized upon BMP-7 treatment of OA chondrocytes (right panel).
Expression of indicated mRNAs was determined by RT-qPCR, relatively to control conditions (normalized for 28S rRNA expression). In graphs, error bars represent mean±SEM, statistical differences were calculated as compared to healthy condition. *=p<0.05.

For the next data set, the system named is OA in rats. The following applies: intra-articular administration; cited from earlier work.
[10] abbreviates: BMP-7 1 nM, OA chondrocytes, RT-qPCR normalized for 28S rRNA.
The mark [11] stands for this setting: BMP-7 treatment of OA chondrocytes.

For “YSEGESAFPLNS (listed as Homo sapiens) [SEQ ID NO: 43]”, in data set [1] (10 nM), the Col10a1 gene expression entry is recorded as “downregulation” and the MMP13 gene expression result is “downregulation”. For the same molecule, in [2], the “COL10A1 (pro-hypertrophic) gene expression” value is recorded as “downregulation”, the “COX-2 (pro-hypertrophic) gene expression” value is “downregulation”, the “Col2a1 (pro-chondrogenic) gene expression” value was “upregulation” and the “RUNX2 (pro-hypertrophic) gene expression” value was “downregulation”.
In the case of “SVLYFDDSSNVILKKYRNMV (listed as Homo sapiens) [SEQ ID NO: 13]”, the PGE2 levels entry in [3] (10 nM), in [5] (10 nM), in [6] (10 nM) and in data set [7] (10 nM) was “reduce PGE2 levels” in each case. In addition, the “Safranin-O intensity (glycosaminoglycans)” value with Cartilage explants (10 nM) is “increased Safranin-O intensity”. Moreover, the “suppression of the OA chondrocyte phenotype” value in [4] is reported as “efficiently suppressed the OA chondrocyte phenotype”.
On to “SSAPTQLNAISVLYFDDSSN (listed as Homo sapiens) [SEQ ID NO: 8]”, for which the “suppression of the OA chondrocyte phenotype” value in data set [4] is “efficiently suppressed the OA chondrocyte phenotype”.

B1: BMP-7: full-length recombinant human bone morphogenetic protein-7; mature polypeptide of 139 amino acids (protein, listed as Homo sapiens)
chain: STGSKQRSQNRSKTPKNQEALRMANVAENSSSDQRQACKKHELYVSFRDLGWQDWIIAPEGYAAYYCEGECAFPLNSYMNATNHAIVQTLVHFINPETVPKPCCAPTQLNAISVLYFDDSSNVILKKYRNMVVRACGCH
With B1, the PGE2 levels entry in data set [3] (1 nM) is given as “reduce PGE2 levels”. For the same molecule, in data set [1] (1 nM), the Col10a1 gene expression entry is reported as “downregulation” and the MMP13 gene expression entry is listed as “downregulation”. Besides, in the data set on Cartilage explants (1 nM), the “Safranin-O intensity (glycosaminoglycans)” value is on record as “increased Safranin-O intensity”. Besides, in data set [8], the MMP13 expression entry is listed as “decreases”. Also, in the data set with OA chondrocytes, the proteoglycan synthesis entry is on record as “stimulates”. Moreover, the PGE2 levels result in data set [5] (1 nM) is given as “reduce PGE2 levels”. The PGE2 levels entry in data set [6] (1 nM) is “reduce PGE2 levels”. The adverse events entry in the data set with OA patients is recorded as “no serious adverse events”. In addition, the “BMP-7 concentration at which OA chondrocyte-phenotype suppressive action is most pronounced” value in [9] is reported as “around 1 nM”. Moreover, in data set [9] (setting [10]), the “BAPX1/NKX3.2 mRNA expression” value is reported as “normalizing expression”, the “COL2A1 mRNA expression” value is reported as “normalizing expression”, the “COX-2 mRNA expression” value is listed as “normalizing expression” and the “IL-6 mRNA expression” value is given as “normalizing expression”. The “SOX9 mRNA expression” value in data set [9] (setting [10]) is reported as “normalizing expression”. Also, the “effects on the chondrocyte phenotype” value in [9] (BMP-7 concentrations higher than 1 nM (eg 10 nM or 100 nM)) is “opposite and negative effects”. Besides, in data set [9] (setting [11]), the “Functional ALP enzyme activity in cell lysates” value is listed as “normalized” and the “PGE2 secretion in the culture medium” value was “normalized”. Also, in [2], the “COL10A1 (pro-hypertrophic) gene expression” value is “downregulation”, the “COX-2 (pro-hypertrophic) gene expression” value was “downregulation”, the “Col2a1 (pro-chondrogenic) gene expression” value was “upregulation” and the “RUNX2 (pro-hypertrophic) gene expression” value is recorded as “downregulation”. For the same molecule, the “OA development and progression” value in the data set with OA in rats is “protects against OA development and delays progression of OA”. Further, the PGE2 levels result in [7] (1 nM) was “reduce PGE2 levels”.
